Measurements as given in doi:10.1101/2022.08.03.502629.
pKd: −log10 of the molar value.

Molecular target: antithrombin (UniProt P01008)
Assay: SPR

Sequence of UniProt P01008 (P01008 33-464): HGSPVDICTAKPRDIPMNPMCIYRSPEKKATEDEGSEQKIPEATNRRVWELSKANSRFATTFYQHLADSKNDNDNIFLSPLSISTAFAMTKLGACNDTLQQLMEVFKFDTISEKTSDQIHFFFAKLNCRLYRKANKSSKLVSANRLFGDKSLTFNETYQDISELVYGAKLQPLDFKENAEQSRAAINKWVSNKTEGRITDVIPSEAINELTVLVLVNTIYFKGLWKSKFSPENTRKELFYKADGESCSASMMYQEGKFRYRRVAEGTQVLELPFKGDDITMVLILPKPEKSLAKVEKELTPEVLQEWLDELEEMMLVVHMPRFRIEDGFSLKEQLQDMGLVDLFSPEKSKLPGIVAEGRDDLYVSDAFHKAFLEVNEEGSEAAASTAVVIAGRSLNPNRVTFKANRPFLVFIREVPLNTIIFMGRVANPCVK

| Substance | pKd |
| --- | --- |
| K96Y S195A Gla-domainless factor Xa (domain or fragment) | 6.34 |
| S195A Gla-domainless factor Xa (domain or fragment) | 6.38 |
